We go through 4 molecules from US20260049151A1 (SHENGHE CHINA BIOPHARMACEUTICAL, published 2026).

Where two headings read alike, the source gives them in different places.

The target of assay [1] is T1, Human-TNFR2-His (human, UniProt P20333 23-257).
T1 construct: Bought protein; also called human TNFR2 protein; TNFR2 protein; not shown: His tag
T1 sequence (looked up): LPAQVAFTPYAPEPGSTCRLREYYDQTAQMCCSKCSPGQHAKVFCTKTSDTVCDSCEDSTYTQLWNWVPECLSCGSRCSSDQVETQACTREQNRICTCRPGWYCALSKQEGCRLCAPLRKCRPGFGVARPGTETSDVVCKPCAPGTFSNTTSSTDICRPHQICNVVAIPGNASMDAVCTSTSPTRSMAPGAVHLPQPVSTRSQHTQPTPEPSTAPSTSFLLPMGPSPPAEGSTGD
The assay is described as follows: ELISA: Human-TNFR2-His coated (0.1 ug/mL), antibody titrated, goat anti-human IgG Fc detection (Example 2).

Assay [2] has as its target T2, Human 4-1BB His (human, UniProt Q07011 24-186).
T2 construct: Bought protein; lots 198-2146F1-W6 and 2407c-214FF1-YC; also called human 4-1BB protein; 4-1BB protein; not shown: His tag
The assay is described as follows: ELISA: Human 4-1BB His coated (0.2 ug/mL), antibody titrated, goat anti-human IgG Fc detection (Example 3). The method, then: Human 4-1BB His (manufacturer: Acro, CAT: 41B-H5258, LOT: 198-2146F1-W6) was diluted to 0.2 μg/mL with a coating solution (1×PBS, pH7.4), and coated in 96-well ELISA plate at 100 μL/well overnight at 4° C. The coating solution was poured off. Each well was washed with 1×PBST at 300 μL, washed 4 times with a plate washer, and patted dry on a flat paper. It was blocked with 3% skim milk powder at 300 μL/well, and incubated at 37° C. for 1 h. The blocking solution was poured off, washed 4 times with a plate washer, and patted dry on a flat paper. Negative control and positive control were set up. […] The variable region of the antibody sequence of the positive control consists of SEQ ID NO: 15 and SEQ ID NO: 19, with the addition of the constant region of human IgG1 (SEQ ID NO: 46 and SEQ ID NO: 47). The positive control and antibody were diluted to 10 μg/mL with 3% skim milk powder as the starting concentration, and then diluted by 3-fold gradient (11 gradients in total), and a blank well was set up and only the diluent was added. It was incubated at 37° C. for 1 h at 100 μL/well. The liquid in the well was discarded, washed 4 times with a plate washer, and patted dry on a flat paper. Goat anti-human IgG Fc was diluted with 3% skim milk powder at 1:20000, and incubated at 37° C. for 1 h at 100 μL/well. It was washed 6 times with a plate washer, and patted dry on a flat paper. TMB color developing solution was added at 100 μL/well, and wrapped with aluminum foil. Color development was performed at 37° C. in the dark for 8 min. Termination solution 1M HCl was added to terminate the color development reaction at 100 μL/well. Readings were taken at 450 nm on an ELISA reader.

Assay [3] addresses T2, Human 4-1BB His. The assay is described as follows: BLI, antibody on AHC sensor, 100 nM 4-1BB His in solution. An excerpt:
The variable region of the antibody sequence of the positive control consists of SEQ ID NO: 15 and SEQ ID NO: 19, with the addition of the constant region of human IgG1 (SEQ ID NO: 46 and SEQ ID NO: 47). The AHC sensor was soaked in 0.02% PBST (0.02% Tween 20, pH 7.4, 1× PBS) as a buffer for 600 s to remove the sucrose covering the sensor surface. The AHC sensor was equilibrated with 0.02% PBST (0.02% Tween 20, pH 7.4, 1× PBS) as a buffer for 60 s, the antibody in the sample plate was solidified for 300 s, and the secondary equilibration buffer was used for 180 s. 100 nM human 4-1BB His (manufacturer: Acro, CAT: 41B-H5258, LOT: 198-2146F1-W6) protein was bound to the antibody for 300 s and then dissociated for 600 s. After dissociation, 10 mM glycine (pH 2.0) was used as a regeneration buffer for 30 s. The sensor was regenerated with 10 mM glycine (pH 2.0).
On the technique in general: Biolayer interferometry detects binding as a change in optical thickness at a sensor tip.

Assay [4] concerns the target T1, Human-TNFR2-His. The assay is described as follows: ELISA: Human-TNFR2-His coated (0.1 ug/mL), antibody titrated, goat anti-human IgG Fc detection (Example 2). The method, then:
(§1) Human-TNFR2-His (manufacturer: SINO, CAT: 10417-H08H, LOT: LC15NO0412) was diluted to 0.1 μg/mL with a coating solution (1×PBS, pH7.4), and coated in 96-well ELISA plate at 100 µL/well overnight at 4° C. The coating solution was poured off. Each well was washed with 1×PBST at 300 μL, washed 4 times with a plate washer, and patted dry on a flat paper. It was blocked with 3% skim milk powder at 300 μL/well, and incubated at 37° C. for 1 h. The blocking solution was poured off, washed 4 times with a plate washer, and patted dry on a flat paper. Negative control and positive control were set up. […] The positive control and antibody were diluted to 10 μg/mL with 3% skim milk powder as the starting concentration, and then diluted by 3-fold gradient (11 gradients in total), and a blank well was set up and only the diluent was added. It was incubated at 37° C. for 1 h at 100 μL/well. The liquid in the well was discarded, washed 4 times with a plate washer, and patted dry on a flat paper. Goat anti-human IgG Fc was diluted with 3% skim milk powder at 1:10000, and incubated at 37° C. for 1 h at 100 μL/well. It was washed 6 times with a plate washer, and patted dry on a flat paper. TMB color developing solution was added at 100 μL/well, and wrapped with aluminum foil. Color development was performed at 37° C. in the dark for 8 min. Termination solution 1M HCl was added to terminate the color development reaction at 100 μL/well. Readings were taken at 450 nm on an ELISA reader.
This is another data set of the same source. (In general: ELISA stands for enzyme-linked immunosorbent assay.)

Assay [5] deals with T2, Human 4-1BB His. Put plainly: ELISA: Human 4-1BB His coated (0.2 ug/mL), antibody titrated, goat anti-human IgG Fc detection (Example 3). The source holds these as a separate data set.
The target in assay [6] is T1, Human-TNFR2-His. Put plainly: ELISA: Human-TNFR2-His coated (0.1 ug/mL), antibody titrated, goat anti-human IgG Fc detection (Example 2). The method, then:
as §1
The source holds these as a separate data set.

Assay [7] addresses T1, Human-TNFR2-His. The assay is described as above. The method, then: as §1
The source holds these as a separate data set.

T2 sequence (Q07011 24-186 limits assumed): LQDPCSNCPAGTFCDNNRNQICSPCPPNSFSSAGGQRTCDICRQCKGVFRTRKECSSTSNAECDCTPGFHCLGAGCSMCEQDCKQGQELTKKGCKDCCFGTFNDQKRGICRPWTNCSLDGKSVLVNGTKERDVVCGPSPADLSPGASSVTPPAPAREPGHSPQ

B1: Antibody J1 (bispecific antibody, human IgG1, kappa)
light: DIQMTQSPSSLSASLGDRVTISCSASQGISNYLNWYQQKPDGTVKLLIYYTSTLHSGVPSRFSGSGSGTDYTLTISSLQPEDIATYYCQQYSKLPWTFGGGTKLEIKRTVAAPSVFIFPPSDEQLKSGTASVVCLLNNFYPREAKVQWKVDNALQSGNSQESVTEQDSKDSTYSLSSTLTLSKADYEKHKVYACEVTHQGLSSPVTKSFNRGEC
heavy: not shown
notes: IgG1 subtype; full-length 4-1BB antibody with TNFR2 VHH at the C-terminus of the heavy chains
One may read the EC50 (read off the curve) as the concentration at which the effect is half-maximal. As usually defined, the Kd is the equilibrium constant for the complex coming apart. A lower Kd goes with higher affinity. For orientation: koff means the first-order rate constant of dissociation. The term kon denotes a measure of how fast the partners come together. Low values mean slower complex formation, high ones faster complex formation. As to B1, the “EC50 (read off the curve)” value with Human-TNFR2-His [1] is about 0.2 nM. In the assay with Human 4-1BB His [2], the “EC50 (read off the curve)” value was about 0.09 nM. Moreover, in the assay with Human 4-1BB His [3], the Kd was found to be 12.2 nM, the koff was 0.00616 s⁻¹ and the kon was 503000 M⁻¹ s⁻¹.

B2: Antibody M1 (bispecific antibody, human IgG1, kappa)
light: DIQMTQSPSSLSASLGDRVTISCSASQGISNYLNWYQQKPDGTVKLLIYYTSTLHSGVPSRFSGSGSGTDYTLTISSLQPEDIATYYCQQYSKLPWTFGGGTKLEIKRTVAAPSVFIFPPSDEQLKSGTASVVCLLNNFYPREAKVQWKVDNALQSGNSQESVTEQDSKDSTYSLSSTLTLSKADYEKHKVYACEVTHQGLSSPVTKSFNRGEC
heavy: not shown
notes: IgG1 subtype; full-length 4-1BB antibody with TNFR2 VHH at the N-terminus of the heavy chains
Turning to B2, the “EC50 (read off the curve)” value in the assay with Human-TNFR2-His [4] is about 0.04 nM. For the same molecule, in the assay with Human 4-1BB His [3], the affinity, expressed as Kd, was 17.5 nM; the koff was determined as 0.00647 s⁻¹; the kon turned out to be 369000 M⁻¹ s⁻¹.

B3: Antibody E1 (bispecific antibody, human IgG1, kappa)
light: DIVMTQSPATLSVSPGERATLSCKASQNVGSNVDWYQQKPGQSPRVLIYKASIRYTGIPARFSGSGSGTEFTLTISILQSEDFAVYFCMQSKSYPITFGQGTKLEIKRTVAAPSVFIFPPSDEQLKSGTASVVCLLNNFYPREAKVQWKVDNALQSGNSQESVTEQDSKDSTYSLSSTLTLSKADYEKHKVYACEVTHQGLSSPVTKSFNRGEC
heavy: not shown
notes: IgG1 subtype; full-length TNFR2 antibody with 4-1BB scFv at the C-terminus of the heavy chains
Consider B3, for which the “EC50 (read off the curve)” value with Human 4-1BB His [5] was about 0.2 nM; with Human-TNFR2-His [1], about 0.09 nM; with Human-TNFR2-His [6], about 0.09 nM. In the assay with Human 4-1BB His [3], the dissociation constant (Kd) turned out to be 18.1 nM. Moreover, in the assay with Human 4-1BB His [3], the koff was 0.00546 s⁻¹. In the assay with Human 4-1BB His [3], this molecule registered a kon of 302000 M⁻¹ s⁻¹.

B4: Antibody H (bispecific antibody, human IgG1, kappa)
light: QVQLQESGPGLVKPSETLSLTCTVSGSSLTSYGVHWVRQPPGKCLEGLGVIWPGGSTNYNSALMSRVTISKDNSKSQVSLKMSSLTAADTAVYYCARVTGTWYFDVWGQGTTVTVSSGGGGSGGGGSGGGGSDIQMTQSPSSLSASLGDRVTISCSASQGISNYLNWYQQKPDGTVKLLIYYTSTLHSGVPSRFSGSGSGTDYTLTISSLQPEDIATYYCQQYSKLPWTFGCGTKLEIKGGGGSGGGGSGGGGSDIVMTQSPATLSVSPGERATLSCKASQNVGSNVDWYQQKPGQSPRVLIYKASIRYTGIPARFSGSGSGTEFTLTISILQSEDFAVYFCMQSKSYPITFGQGTKLEIKRTVAAPSVFIFPPSDEQLKSGTASVVCLLNNFYPREAKVQWKVDNALQSGNSQESVTEQDSKDSTYSLSSTLTLSKADYEKHKVYACEVTHQGLSSPVTKSFNRGEC
heavy: not shown
notes: IgG1 subtype; full-length TNFR2 antibody with 4-1BB scFv at the N-terminus of the light chains
As to B4, the “EC50 (read off the curve)” value with Human-TNFR2-His [7] is about 0.08 nM. In addition, the “EC50 (read off the curve)” value with Human 4-1BB His [2] is about 0.06 nM. Also, in the assay with Human 4-1BB His [3], the Kd came to 6.42 nM, the koff came out at 0.00435 s⁻¹ and the kon stood at 677000 M⁻¹ s⁻¹.
